Measurements as given in patent publication US20260242478A1 (published 2026).
Where no end group is shown, it is not given here.

What was measured:
[1] = target: T1, anti-CD28 scFv (VH - linker 1 - VL) (biotinylated (site not stated)); test: phage ELISA; biotinylated anti-CD28 scFv on neutravidin plate, clonal phage supernatant, anti-M13-HRP detection;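 also: before phage addition, wells were pretreated with soluble CD28 protein in blocking buffer, or with blocking buffer only as the comparison, then phage were added without washing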
T1 sequence (scFv, as listed by the source): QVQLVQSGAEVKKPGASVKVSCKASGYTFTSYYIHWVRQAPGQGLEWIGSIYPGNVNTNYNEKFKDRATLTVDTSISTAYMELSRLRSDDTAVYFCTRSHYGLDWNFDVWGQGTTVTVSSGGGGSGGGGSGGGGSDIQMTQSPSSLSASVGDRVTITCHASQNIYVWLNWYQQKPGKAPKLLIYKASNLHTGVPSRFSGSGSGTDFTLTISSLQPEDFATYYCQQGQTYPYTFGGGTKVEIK

[2] = target: T1, anti-CD28 scFv (VH - linker 1 - VL); test: phage ELISA as above, wells pre-incubated with soluble CD28 (competitor);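 also: ELISA of crude clonal phage supernatants added to wells pre-treated with soluble CD28 in blocking buffer, bound phage read out with HRP-conjugated anti-M13 antibody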
Protocol: (§1) Clonal phage were harvested as crude supernatants and screened via standard enzyme linked immunosorbent assays (ELISAs). […] Prior to the addition of clonal phage, wells were incubated with blocking buffer and CD28 soluble protein or blocking buffer alone. Without washing or aspirating, clonal phage supernatants were then added to the wells and incubated for a short time. Wells were then washed followed by detection of bound phage using a horse radish peroxidase conjugated anti-M13 antibody.

[3] = target: T2, Anti-CD28 scFv (VH - linker 1 - VL) (biotinylated (site not stated)); test: clonal phage ELISA on captured anti-CD28 scFv, wells pre-incubated with soluble CD28 as competitor;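 also: crude phage supernatants used, bound phage read out via HRP-linked anti-M13 antibody, with comparison wells given blocking buffer lacking soluble CD28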
T2 sequence (scFv, as listed by the source): as above

[4] = target: T2, Anti-CD28 scFv (VH - linker 1 - VL); test: clonal phage ELISA on biotinylated anti-CD28 scFv captured on neutravidin plates, anti-M13 HRP detection;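 also: crude phage supernatants were used, and before phage were added the wells were pretreated with blocking buffer, either alone or with soluble CD28 protein, without washing in between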
Protocol: as §1

[5] = target: anti-CD28 scFv (VH - linker 1 - VL) (biotinylated (site not given)); test: phage ELISA as before, wells pre-incubated with soluble CD28 (competitor)
anti-CD28 scFv (VH - linker 1 - VL) (biotinylated (site not given)), sequence (scFv, as listed by the source): as above

Row | Binder | CD28 scFv signal [1] | CD28 scFv signal in presence of CD28 [2] | CD28 scFv signal in presence of CD28 [3] | CD28 scFv signal [4] | CD28 scFv signal in presence of CD28 [5]
1 | MAWCPMNLWDQCFF (peptide, not shown: large carriers, Clonal phage of the Peptide-9 library) [Phage-159] | 1.2 | 0.145 | – | – | –
2 | MHWCPEYLWNECFA (peptide, not shown: large carriers, cysteine pairing not given here; also: displayed as fusion to phage pIII, linker and pIII sequence not given here, Clonal phage of the Peptide-9 library) [Phage-148] | 1.69 | 0.092 | – | – | –
3 | MDFCPISLWHECFF (peptide, not shown: large carriers, Clonal phage of the Peptide-9 library) [Phage-151] | 1.58 | 0.129 | – | – | –
4 | MDWCPVSLWHVCFY (tested as crude clonal phage supernatant) [Phage-125] | – | – | 0.409 | 2.4 | –
5 | MDWCPSYLWTVCFA (tested as crude clonal phage supernatant) [Phage-129] | – | – | 0.096 | 2.34 | –
6 | MDWCPRHLWSECFY (peptide, not shown: large carriers, cysteine pairing not given here; also: fused to phage pIII protein, pIII and linker sequence not given here, Clonal phage of the Peptide-9 library) [Phage-146] | 1.92 | 0.199 | – | – | –
7 | MDWCPMYLWNECFS (tested as crude clonal phage supernatant; not shown: pIII of the bacteriophage to which the peptide is fused) [Phage-80, clonal phage peptide MDWCPMYLWNECFS] | – | – | – | – | 0.411
8 | MDWCPRPLWDMCFF (tested as crude clonal phage supernatant) [Phage-124] | – | – | 0.138 | 2.4 | –
9 | MDWCPRDLWDQCYA (tested as crude clonal phage supernatant) [Phage-122] | – | – | 0.201 | 2.41 | –
10 | MHWCPLHLWNECYH (peptide, not shown: large carriers, Clonal phage of the Peptide-9 library) [Phage-155] | 1.37 | 0.113 | – | – | –
11 | MDWCPRHLWDLCFA (peptide, not shown: large carriers, cysteine pairing not given here; also: displayed as fusion to phage pIII, linker and pIII sequence not given here, Clonal phage of the Peptide-9 library) [Phage-166] | 0.925 | 0.096 | – | – | –
12 | MDWCPRHLWDQCFA (peptide, not shown: large carriers, Clonal phage of the Peptide-9 library) [Phage-161] | 1.12 | 0.144 | – | – | –
13 | MDWCPRHLWDLCFF (peptide, not shown: large carriers, Clonal phage of the Peptide-9 library) [Phage-153] | 1.4 | 0.182 | – | – | –
14 | MDWCPRYLWHECFH (tested as crude clonal phage supernatant) [Phage-137] | – | – | 0.308 | 2.19 | –
15 | MDWCPRYLWTECFF (peptide, not shown: large carriers, Clonal phage of the Peptide-9 library) [Phage-158] | 1.26 | 0.244 | – | – | –
16 | MDWCPSYLWHECFA (tested as crude clonal phage supernatant) [Phage-134] | – | – | 0.198 | 2.28 | –
17 | MDWCPKHLWHQCFH (peptide, not shown: large carriers, Clonal phage of the Peptide-9 library) [Phage-156] | 1.35 | 0.108 | – | – | –
18 | MDWCPRSLWSYCFH (peptide, not shown: large carriers, Clonal phage of the Peptide-9 library) [Phage-157] | 1.33 | 0.152 | – | – | –
19 | MDWCPKHLWIECFA (peptide, not shown: large carriers, cysteine pairing not given here; also: fused to phage pIII protein, pIII and linker sequence not given here, Clonal phage of the Peptide-9 library) [Phage-145] | 1.98 | 0.132 | – | – | –
20 | MDWCPRHLWDECFF (tested as crude clonal phage supernatant) [Phage-118] | – | – | 0.663 | 2.46 | –
21 | MDWCPRFLWDECFF (tested as crude clonal phage supernatant; also called position 7 is F in the position column) [Phage-133] | – | – | 0.246 | 2.28 | –
22 | MHWCPRDLWVVCFN (peptide, not shown: large carriers, cysteine pairing not given here; also: fused to phage pIII protein, pIII and linker sequence not given here, Clonal phage of the Peptide-9 library) [Phage-147] | 1.83 | 0.112 | – | – | –
23 | LDWCPLNLWDLCYF (tested as crude clonal phage supernatant) [Phage-143] | – | – | 0.095 | 2.03 | –
24 | MDWCPRDLWHVCFF (tested as crude clonal phage supernatant) [Phage-121] | – | – | 0.268 | 2.41 | –

Row | Binder | CD28 scFv signal [1] | CD28 scFv signal in presence of CD28 [2] | CD28 scFv signal in presence of CD28 [3] | CD28 scFv signal [4] | CD28 scFv signal in presence of CD28 [5]
25 | MDWCPRDLWNVCFA (peptide, not shown: large carriers, Clonal phage of the Peptide-9 library) [Phage-154] | 1.38 | 0.145 | – | – | –
26 | MDWCPRDLWAVCFA (peptide, not shown: large carriers, Clonal phage of the Peptide-9 library) [Phage-149] | 1.67 | 0.089 | – | – | –
27 | MDWCPRDLWNVCFN (peptide, not shown: large carriers, cysteine pairing not given here; also: displayed as fusion to phage pIII, linker and pIII sequence not given here, Clonal phage of the Peptide-9 library) [Phage-169] | 0.74 | 0.108 | – | – | –
28 | MDWCPRYLWHMCYS (tested as crude clonal phage supernatant) [Phage-119] | – | – | 1.17 | 2.42 | –
29 | MDWCPRSLWNVCFF (tested as crude clonal phage supernatant) [Phage-141] | – | – | 0.356 | 2.13 | –
30 | MHWCPIYLWDECFN (tested as crude clonal phage supernatant) [Phage-136] | – | – | 0.193 | 2.23 | –
31 | MDWCPKFLWHECFS (tested as crude clonal phage supernatant; also called position 7 is F in the position column) [Phage-135] | – | – | 0.142 | 2.28 | –
32 | MDWCPTYLWFECFN (tested as crude clonal phage supernatant) [Phage-132] | – | – | 0.224 | 2.33 | –
33 | MDWCPRALWNECFA (tested as crude clonal phage supernatant) [Phage-127] | – | – | 0.375 | 2.38 | –
34 | MDWCPRYLWDACFF (tested as crude clonal phage supernatant) [Phage-130] | – | – | 0.168 | 2.34 | –
35 | MDWCPMDLWDVCFN (tested as crude clonal phage supernatant) [Phage-140] | – | – | 0.263 | 2.15 | –
36 | MDWCPRHLWYACFN (tested as crude clonal phage supernatant) [Phage-144] | – | – | 0.159 | 2.01 | –
37 | MDWCPTNLWHECFA (tested as crude clonal phage supernatant) [Phage-138] | – | – | 0.096 | 2.16 | –
38 | MDWCPRDLWDVCFA (tested as crude clonal phage supernatant) [Phage-139] | – | – | 0.28 | 2.16 | –
39 | MDWCPRSLWIYCFN (tested as crude clonal phage supernatant) [Phage-131] | – | – | 0.401 | 2.34 | –
40 | MDWCPVILWDFCFN (tested as crude clonal phage supernatant; also called position 11 is F in the position column) [Phage-142] | – | – | 0.173 | 2.03 | –
41 | MDWCPRDLWIECFF (tested as crude clonal phage supernatant) [Phage-128] | – | – | 0.137 | 2.37 | –
42 | MDWCPRHLWNVCFS (peptide, not shown: large carriers, Clonal phage of the Peptide-9 library) [Phage-150] | 1.61 | 0.176 | – | – | –
43 | MDWCPIHLWNECFA (tested as crude clonal phage supernatant) [Phage-123] | – | – | 0.203 | 2.4 | –
44 | MHWCPRALWHECFN (peptide, not shown: large carriers, Clonal phage of the Peptide-9 library) [Phage-160] | 1.18 | 0.144 | – | – | –
45 | MDWCPRFLWSVCFN (tested as crude clonal phage supernatant; not shown: pIII of the bacteriophage to which the peptide is fused) [Phage-81, clonal phage peptide …] | – | – | – | – | 1.15
46 | MDWCPRDLWHACFS (tested as crude clonal phage supernatant) [Phage-120] | – | – | 0.173 | 2.41 | –
47 | MDWCPRFLWNECFN (tested as crude clonal phage supernatant) [Phage-126] | – | – | 0.503 | 2.4 | –
48 | MDWCPKYLWDKCFH (peptide, not shown: large carriers, Clonal phage of the Peptide-9 library) [Phage-152] | 1.54 | 0.109 | – | – | –
